Measurements as given in publication doi:10.1101/815886 (bioRxiv, 2019).
One block for each binder: values may come before it.

B1: human STN1 (subunit of the purified recombinant CST complex) (natural protein)
chain: MQPGSSRCEEETPSLLWGLDPVFLAFAKLYIRDILDMKESRQVPGVFLYNGHPIKQVDVLGTVIGVRERDAFYSYGVDDSTGVINCICWKKLNTESVSAAPSAARELSLTSQLKKLQETIEQKTKIEIGDTIRVRGSIRTYREEREIHATTYYKVDDPVWNIQIARMLELPTIYRKVYDQPFHSSALEKEEALSNPGALDLPSLTSLLSEKAKEFLMENRVQSFYQQELEMVESLLSLANQPVIHSASSDQVNFKKDTTSKAIHSIFKNAIQLLQEKGLVFQKDDGFDNLYYVTREDKDLHRKIHRIIQQDCQKPNHMEKGCHFLHILACARLSIRPGLSEAVLQQVLELLEDQSDIVSTMEHYYTAF
B2: human CTC1 (subunit of the purified recombinant CST complex) (natural protein)
chain: MAAGRAQVPSSEQAWLEDAQVFIQKTLCPAVKEPNVQLTPLVIDCVKTVWLSQGRNQGSTLPLSYSFVSVQDLKTHQRLPCCSHLSWSSSAYQAWAQEAGPNGNPLPREQLLLLGTLTDLSADLEQECRNGSLYVRDNTGVLSCELIDLDLSWLGHLFLFPRWSYLPPARWNSSGEGHLELWDAPVPVFPLTISPGPVTPIPVLYPESASCLLRLRNKLRGVQRNLAGSLVRLSALVKSKQKAYFILSLGRSHPAVTHVSIIVQVPAQLVWHRALRPGTAYVLTELRVSKIRGQRQHVWMTSQSSRLLLLKPECVQELELELEGPLLEADPKPLPMPSNSEDKKDPESLVRYSRLLSYSGAVTGVLNEPAGLYELDGQLGLCLAYQQFRGLRRVMRPGVCLQLQDVHLLQSVGGGTRRPVLAPCLRGAVLLQSFSRQKPGAHSSRQAYGASLYEQLVWERQLGLPLYLWATKALEELACKLCPHVLRHHQFLQHSSPGSPSLGLQLLAPTLDLLAPPGSPVRNAHNEILEEPHHCPLQKYTRLQTPSSFPTLATLKEEGQRKAWASFDPKALLPLPEASYLPSCQLNRRLAWSWLCLLPSAFCPAQVLLGVLVASSHKGCLQLRDQSGSLPCLLLAKHSQPLSDPRLIGCLVRAERFQLIVERDVRSSFPSWKELSMPGFIQKQQARVYVQFFLADALILPVPRPCLHSATPSTPQTDPTGPEGPHLGQSRLFLLCHKEALMKRNFCVPPGASPEVPKPALSFYVLGSWLGGTQRKEGTGWGLPEPQGNDDNDQKVHLIFFGSSVRWFEFLHPGQVYRLIAPGPATPMLFEKDGSSCISRRPLELAGCASCLTVQDNWTLELESSQDIQDVLDANKSLPESSLTDLLSDNFTDSLVSFSAEILSRTLCEPLVASLWMKLGNTGAMRRCVKLTVALETAECEFPPHLDVYIEDPHLPPSLGLLPGARVHFSQLEKRVSRSHNVYCCFRSSTYVQVLSFPPETTISIPLPHIYLAELLQGGQSPFQATASCHIVSVFSLQLFWVCAYCTSICRQGKCTRLGSTCPTQTAISQAIIRLLVEDGTAEAVVTCRNHHVAAALGLCPREWASLLDFVQVPGRVVLQFAGPGAQLESSARVDEPMTMFLWTLCTSPSVLRPIVLSFELERKPSKIVPLEPPRLQRFQCGELPFLTHVNPRLRLSCLSIRESEYSSSLGILASSC

What was measured:
Test in all cases: cryo-EM structure
[1] = biological target: B2
cryo-EM structure = biological target: the molecule itself
[2] = biological target: B1

Binder: B1
stoichiometry N [1]: 1

Binder: B2
binding result (cryo-EM structure): binds

binding result [1]: binds
stoichiometry N [2]: 1
B3: human TEN1 (subunit of the purified recombinant CST complex) (natural protein)
chain: MMLPKPGTYYLPWEVSAGQVPDGSTLRTFGRLCLYDMIQSRVTLMAQHGSDQHQVLVCTKLVEPFHAQVGSLYIVLGELQHQQDRGSVVKARVLTCVEGMNLPLLEQAIREQRLYKQERGGSQ
